In the supplement of paper PMC10567573:

B1: ATL3 (parent)
chain: FSFRYQQELEEEIKELYENFCKHN
B2: ACBD3 (parent)
chain: YVASHKIEKEEQEKKRKEEEERRR

Variants of: B1
Experiment: protein stability index of a GFP-peptide fusion (GPS, HEK-293T) (PSI 1-6); higher = more stable
Settings: c terminus: a fixed tail appended
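Note: lentivirally expressed fusions sorted by FACS into six bins by GFP to DsRed ratio, PSI derived from sequencing read proportions per bin multiplied by bin number.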

Protein stability index, by site and new letter:
Q6: M 2.08, Y 2.24, C 2.38, W 1.51, S 2, T 2.04, G 2.67, E 2.16, K 2.26, A 2.21, V 2.11, I 1.57, P 2.09, D 2.35, H 2.03, F 2.1, R 2.03, L 2.19, N 2.06
F3: Y 2.01, V 2.51, I 2.52, Q 4.39, S 2.79, H 3.23, N 2.85, L 2.7, R 2.83, K 2.09, D 3.14, G 3.15, E 3.04, W 2.82, T 3.23, P 3.79, C 2.59, M 2.96, A 2.93
E12: F 1.91, T 1.79, C 1.76, Y 2.06, P 2.17, R 1.76, M 1.76, W 2.04, V 2.08, A 1.97, S 2.03, I 2.07, Q 2.53, D 2.84, N 2.09, H 2.29, G 2.1, L 2.74, K 2.27
K14: F 1.87, W 2.73, A 2.33, R 2.72, S 1.66, L 1.49, Y 1.62, P 2.05, I 1.62, E 2.53, V 2.17, Q 2.39, T 2.29, D 2.81, N 2.31, H 2.28, G 2.37, C 2.15, M 1.53
Y5: E 3.07, T 3.09, A 3.51, K 2.93, S 3.35, V 1.93, H 2.84, Q 2.63, P 3.45, W 2.21, N 3.29, L 2.13, I 2.77, F 2.5, M 3.4, R 3.56, D 3.55, C 2.44
E15: F 1.56, V 2.33, H 2.15, G 1.56, I 1.71, K 2.96, A 1.38, T 1.83, C 1.67, M 1.39, P 1.59, Q 1.91, N 1.75, S 2.03, D 2.59, R 2.06, L 1.96
Q7: E 2.64, Y 2.91, I 1.75, L 1.92, S 2.24, K 2.46, F 1.65, H 2.2, V 2.17, C 2.15, G 3.13, M 2.39, P 3.07, A 2.04, N 2.51, D 2.35, R 2.3, T 2.59, W 1.84
E10: G 1.9, C 1.77, A 2.02, L 1.6, F 2.06, W 2.02, T 2.37, Q 2, P 2.61, H 1.81, D 3.31, N 2.13, M 1.75, V 1.47, S 2.23, I 1.46, Y 1.75, K 2.2, R 1.78
E11: S 2.58, M 2.37, G 2.21, C 1.61, Y 1.6, D 2.38, Q 2.18, V 1.53, A 2.76, R 1.98, L 1.58, T 2.74, F 1.45, N 2.69, W 1.8, P 2.25, K 2.55, H 2.29, I 2.11
S2: R 2.62, V 1.65, C 3.27, L 1.85, D 2.93, T 2.36, M 1.52, E 2.52, A 2.51, Q 2.6, N 2.37, Y 2.73, G 2.53, I 1.7, H 2.29, F 1.75, K 2.58, W 1.8, P 2.63
L9: F 2.16, N 2.81, Q 3.09, S 2.41, M 2.65, H 3.64, D 3.2, T 3.48, I 2.5, K 2.68, A 2.6, Y 2.24, E 2.11, G 2.75, P 2.63, R 3.33, V 2.11, C 3.22, W 2.66
E8: N 2.44, S 1.89, W 2.09, Y 1.79, L 2.1, V 1.46, A 1.91, T 1.79, G 2.68, M 1.97, R 1.65, C 2.11, H 2.27, K 1.69, Q 2.02, F 1.89, P 2.02, I 1.72
R4: N 2.96, M 1.96, H 2.9, I 1.87, C 2.23, P 2.87, Y 2.11, Q 2.82, T 2.02, A 2.05, F 2.45, K 2.33, G 2.88, V 2.36, S 2.1, E 2.63, W 1.61, L 2.09, D 3.13
F1: D 3.8, H 3.35, A 2.78, C 3.11, P 3.43, Q 3.11, Y 2.33, I 2.46, E 4.04, K 3.01, R 1.95, S 3.89, L 3.32, G 3.93, V 2.54, T 3.87, W 1.95, N 3.74, M 2.03
I13: G 2.29, V 2.07, R 2.53, W 2.66, A 2.31, E 2.9, F 2.66, D 2.69, N 2.46, H 2.82, Q 2.19, K 2.79, P 2.45, M 2.65, T 2.91, Y 2.83, L 1.99, C 3.79, S 2.17

Variants of: B2
Experiment: as above
Settings: c terminus: a fixed tail appended

Protein stability index, by site and new letter:
E18: W 3.53, Q 2.43
E20: L 1.71, Y 1.58, P 1.98, S 2.62
I7: D 3.86, V 2.43
E8: T 2.13, A 2.23, R 2.81, F 1.12
R16: F 2.34, G 2.88, N 2.63
K17: V 2.9, L 3.14
Y1: L 5.56, V 5.68
E10: L 2.95, D 2.42
Q12: W 1.93
E21: P 2.35, R 2.04, C 2.21
R24: I 2.52, W 2.63
V2: E 5.85, S 5.25
K15: W 3.36, I 2.39, E 3.07, G 2.71, L 2.2
K6: P 2.67, M 3.21, T 2.88, R 2.74
R22: C 2.69, W 2.28, I 3.59
A3: L 3.09, R 2.01
E11: C 2.55
S4: T 2.74, F 2.07, L 2.67, M 2.1
K14: N 2.99
R23: S 2.47
H5: R 2.46
E19: V 2.59, T 2.57
